Reference: patent US6855815 (Amgen, dated 2005)

Tests used:
[1] = molecular target: T1, human cellular inhibitor of apoptosis protein 1 (c-IAP1) (human, UniProt Q13490 1-618); experiment: yeast two-hybrid
T1 construct: Tested in a yeast two-hybrid system; also called h c-IAP1
From the text: (§1) A yeast two-hybrid system was used to determine how c-IAP1 and -2 interact with TNF-R2 and/or TRAFs. The following results were obtained indistinguishably for c-IAP1 and c-IAP2. […] However, a direct interaction could be detected between c-IAP1 and TRAF2. […] Consistently, c-IAP1 also interacted with TRAF1. […] Thus c-IAP1 and TNF-R2 bind to non-overlapping docking sites within the TRAF domain of TRAF2. […] Similarly, combinations of two of the three BIR motifs e.g. amino acid residues 46–99 and 204–249 of c-IAP1 and 29–82 and 189–234 of c-IAP2, separated by IAP1 derived intervening sequences of varying lengths are assayed for TRAF1 and TRAF2 binding. […] The RING finger domain of c-IAP1/2 (amino acids 571–618 of c-IAP1 and 557–604 of c-IAP2) is not required for interaction with TRAFs, but rather mediates subsequent steps in the c-IAP1/2 signaling cascade. Similarly, a variety of c-IAP1 derived N-terminal leader sequences fused to the c-IAP1 RING finger domain are used to assay signal transduction mediation.

[2] = molecular target: T2, human cellular inhibitor of apoptosis protein 2 (c-IAP2) (human, UniProt Q13489 1-604); experiment: yeast two-hybrid
T2 construct: The two-hybrid fusion partners are not described; also called h c-IAP2
From the text: as §1

[3] = molecular target: T3, c-IAP1 N-terminally tagged with a FLAG epitope peptide (Homo sapiens (Human), UniProt Q13490 1-618); experiment: co-immunoprecipitation from transfected 293 cells (anti-TNF-R2 IP, anti-FLAG Western)
T3 construct: Expressed in human embryonic 293 cells from a pRK vector (CMV promoter); also called FLAG-tagged c-IAP1
Experimental: A transfection based co-immunoprecipitation assay was used to investigate how c-IAP1 interacts with the complex of TNF-R2 and TRAFs. In this system c-IAP1 was N-terminally tagged with a FLAG epitope peptide and expressed in human embryonic 293 cells under the control of a constitutive CMV promotor (pRK vector). The c-IAP1 expression vector was transiently co-transfected into 293 cells with expression vectors for TNF-R2 and TRAFs. After 24–36 h, the cells were harvested and extracts immunoprecipitated with anti-TNF-R2 antibodies, followed by Western analysis with anti-FLAG antibodies. […] Thus, c-IAP1 is a component of the TNF-R2 (CD40)/TRAF signaling complex.

T3 sequence (Q13490 whole entry): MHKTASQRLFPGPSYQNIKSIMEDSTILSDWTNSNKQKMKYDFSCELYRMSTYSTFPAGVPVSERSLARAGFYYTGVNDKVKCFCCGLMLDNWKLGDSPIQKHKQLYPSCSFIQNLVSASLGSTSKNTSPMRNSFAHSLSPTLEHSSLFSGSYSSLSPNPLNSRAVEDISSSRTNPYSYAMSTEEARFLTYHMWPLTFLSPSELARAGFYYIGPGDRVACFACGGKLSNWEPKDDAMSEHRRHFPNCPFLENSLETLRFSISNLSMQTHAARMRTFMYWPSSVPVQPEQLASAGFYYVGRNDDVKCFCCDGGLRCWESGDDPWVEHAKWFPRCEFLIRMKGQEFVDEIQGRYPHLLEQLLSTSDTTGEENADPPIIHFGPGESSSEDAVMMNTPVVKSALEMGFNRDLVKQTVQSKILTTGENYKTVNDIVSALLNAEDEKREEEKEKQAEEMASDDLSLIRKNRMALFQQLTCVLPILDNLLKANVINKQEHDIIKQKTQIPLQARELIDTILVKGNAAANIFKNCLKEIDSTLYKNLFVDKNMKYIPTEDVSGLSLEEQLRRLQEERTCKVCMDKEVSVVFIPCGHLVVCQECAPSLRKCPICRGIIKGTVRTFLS
T1 sequence (Q13490 whole entry): as above
T2 sequence (Q13489 whole entry, the tested form may be a part): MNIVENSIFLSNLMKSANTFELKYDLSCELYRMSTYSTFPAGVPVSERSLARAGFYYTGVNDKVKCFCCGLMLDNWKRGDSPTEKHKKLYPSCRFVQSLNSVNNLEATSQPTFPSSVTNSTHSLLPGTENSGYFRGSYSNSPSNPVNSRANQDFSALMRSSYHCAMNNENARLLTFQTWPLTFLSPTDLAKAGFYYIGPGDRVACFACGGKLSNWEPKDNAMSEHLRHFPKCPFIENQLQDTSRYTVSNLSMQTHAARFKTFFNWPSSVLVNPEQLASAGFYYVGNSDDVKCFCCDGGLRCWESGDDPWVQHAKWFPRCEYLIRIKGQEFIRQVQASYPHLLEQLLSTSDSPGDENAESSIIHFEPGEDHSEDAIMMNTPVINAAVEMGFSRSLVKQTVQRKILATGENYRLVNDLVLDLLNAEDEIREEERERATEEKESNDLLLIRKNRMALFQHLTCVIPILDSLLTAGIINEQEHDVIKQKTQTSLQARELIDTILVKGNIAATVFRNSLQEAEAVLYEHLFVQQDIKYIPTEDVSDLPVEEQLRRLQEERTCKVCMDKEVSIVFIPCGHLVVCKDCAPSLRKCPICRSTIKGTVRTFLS

binding result [1]: no binding
binding result [2]: no binding
binding result [3]: no binding
B1: TNF-R2 (receptor, UniProt P20333 288-461, looked up)
chain: KKKPLCLQREAKVPHLPADKARGTQGPEQQHLLITAPSSSSSSLESSASALDRRAPTRNQPQAPGVEASGAGEARASTGSSDSSPGGHGTQVNVTCIVNVCSSSDHSSQCSSQASSTMGDTDSSPSESPKDEQVPFSKEECAFRSQLETPETLLGSTEEKPLPLGVPDAGMKPS
notes: In the co-immunoprecipitation it was expressed from a vector in 293 cells
